From patent publication US20110236380A1 (published 2011)
Numbering of substitutions follows the chain as printed.

B1: DOM10-53-567 (other)
VH: GVQLLESGGGLVQPGGSLRLSCAASGFVFAWYDMGWVRQAPGKGLEWVSSIDWHGEVTYYADSVKGRFTISRDNSKNTLYLQMNSLRAEDTAVYYCATAEDEPGYDYWGQGTLVTVSS
B2: DOM10-53-616 (other)
VH: B1 VH with A30P, E56K, V57I
B3: DOM10-53-546 (other)
VH: B1 VH with A30P, H54K, E56G, V57K
B4: DOM10-53-568 (other)
VH: B1 VH with E56K, V57I
B5: DOM10-53-474 (other)
VH: B1 VH with V28T
notes: Anti-IL-13 immunoglobulin single variable domain (dAb), monomer

The binders below were run against T1, human IL-13 (human, UniProt P35225 35-146, limits assumed) (assay: cell-based or functional assay).
T1 sequence (P35225 35-146 limits assumed): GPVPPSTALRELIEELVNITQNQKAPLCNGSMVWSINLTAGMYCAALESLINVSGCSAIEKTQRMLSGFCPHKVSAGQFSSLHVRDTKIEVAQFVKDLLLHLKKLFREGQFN

Binder	HEK assay Human EC50
B1	0.31 nM
B2	2.9 nM
B3	1 nM
B4	0.62 nM
B5	2 nM

What follows are binders tested against T2, Cynomolgus monkey IL-13 (cynomolgus monkey, UniProt Q0PW92 21-132) (assay: cell-based or functional assay).
T2 sequence (Q0PW92 entry or part of it): as the sequence (P35225 35-146 limits assumed) above, with G1S, R10K, M42V, S67N, H83R, L100V counted along it

Binder	HEK assay Cyno EC50
B1	5.1 nM
B2	5.9 nM
B3	5.9 nM
B4	8.8 nM
B5	30.1 nM

What follows are binders tested against rhesus IL-13 (rhesus, UniProt Q864V6 19-132, limits assumed) (assay: cell-based or functional assay).
rhesus IL-13, sequence (Q864V6 19-132 limits assumed): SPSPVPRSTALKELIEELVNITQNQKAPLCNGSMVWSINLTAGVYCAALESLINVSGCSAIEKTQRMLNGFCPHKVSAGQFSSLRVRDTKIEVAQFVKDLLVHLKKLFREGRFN

Binder	HEK assay Rhesus EC50
B1	2.8 nM
B2	7.6 nM
B3	11.4 nM
B4	8.1 nM
B5	30.2 nM

Each binder was assayed against T1, human IL-13 (assay: Biacore SPR, biotinylated IL-13 on streptavidin chip, dAb as analyte, 1:1 model, 25 C).
Description: (§1) The binding affinities of purified DOM10 dAbs to both human and cyno IL-13 were assessed by Biacore analysis. Analysis was carried out using biotinylated IL-13. About 150 RU of biotinylated IL-13 was coated to a streptavidin (SA) chip (Biacore, GE healthcare). The surface was regenerated back to baseline using 0.1 M Glycine pH 2. dAbs were passed over this surface at defined concentrations using a flow rate of 50 μl/min. Data were analyzed using BIAevaluation software (Biacore, GE Healthcare) and fitted to the 1:1 model of binding. The binding data fitted well to the 1:1 model for all DOM10 dAbs. Biacore runs were carried out at 25° C.

Binder	Kd
B1	0.072 nM
B2	0.13 nM
B3	0.094 nM
B4	0.07 nM
B5	0.259 nM

The binders below were run against T2, Cynomolgus monkey IL-13 in the same assay as above.
Description: as §1

Binder	Kd
B1	2.6 nM
B2	3.2 nM
B3	2.1 nM
B4	1.6 nM
B5	9.3 nM

Each binder was assayed against T1, human IL-13 (assay: DOM10 sandwich ELISA: dAb dilution series mixed with 150 pg/ml human IL-13, loss of IL-13 detection by the kit antibodies).
Description: dAbs were also tested in DOM10 ELISA to assess the potency against human IL-13 and cell based HEK Blue-STAT6 (HEK STAT) assays to assess the potency against human, cyno and Rhesus IL-13. DOM10 ELISA measures the ability of DOM10 dAbs to bind IL-13 and prevent its binding to an IL-13 detection antibody. A MAXISORP™ plate (high protein binding ELISA plate, Nunc, Denmark) is coated overnight with 2.5 μg/ml coating antibody (Module Set, Bender MedSystems, Vienna, Austria), then washed once with 0.1% (v/v) Tween 20 in PBS before blocking with 0.5% (w/v) BSA 0.05% (v/v) Tween 20 in PBS for 2 hours at room temperature. The plate is washed twice as previously detailed before the addition of 150 pg/ml IL-13 (GSK) mixed with a dilution series of DOM10 dAb (i.e., an anti-IL-13 dAb) and incubated for 1 hour. The plate is washed twice before binding of IL-13 to the capture antibody is detected using biotin conjugated detection antibody (Module Set, Bender Medsystems), followed by peroxidase labelled Streptavidin (Module Set, Bender MedSystems). Finally the plate is washed three times before incubation with TMB substrate (KPL, Gaithersburg, USA), and the reaction stopped by the addition of HCl and the absorbance read at 450 nm. Anti-IL-13 dAb activity causes a decrease in IL-13 binding and therefore a decrease in absorbance compared with the IL-13 only control.

Binder	EC50
B1	0.021 nM
B2	0.048 nM
B3	0.125 nM
B5	0.217 nM
